Biological target: WT capsid protein (RRV CP) (Ross River virus, UniProt P08491 1-270)
Assay: EMSA (native agarose gel shift, co-migration of protein and DNA); 3 uM CP, 3 uM DNA, 150 mM NaCl; CLP assembly
Details: protein: recombinant; tags: 6xHis (N-terminal)

Chain of WT capsid protein (RRV CP) (P08491 1-270): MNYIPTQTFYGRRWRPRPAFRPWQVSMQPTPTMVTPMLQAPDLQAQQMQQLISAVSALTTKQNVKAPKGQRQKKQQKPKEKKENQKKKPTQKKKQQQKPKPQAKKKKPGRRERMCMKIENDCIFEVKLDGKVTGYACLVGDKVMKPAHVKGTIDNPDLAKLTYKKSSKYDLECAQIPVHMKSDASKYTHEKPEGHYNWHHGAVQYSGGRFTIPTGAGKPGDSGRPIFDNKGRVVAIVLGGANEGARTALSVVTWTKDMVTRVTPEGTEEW

B1: 48-mer linear ssDNA oligomer (DNA cargo) (ssDNA)
DNA: GTTGACGTCACAGATGAGATATAAAGCATAAGGGACATGTTCAAACGG
- binding result: binds

— publication PMC7472333
